# Laboratory results reported in the DeepSol protein solubility set.
# Test: soluble on expression in E. coli; label from the status in PepcDB or PDB records
row,Sequence,soluble on expression in E. coli
1,MSLYTFKELKRATKQDTVSLPKLKVALLGDTATQLLATAIKGEGILRNYNIELWEAEYNQVERQIMDPTSDYYQFEPDYTIIFHSTHKLLEKHSLVNSDLQNKLADDRLDFVRLLCEQGIGRVIYYNYPEIEDTIWGSYATKVQSSFTYQLTKLNYELMNISQAYPNFFICNLAGISAKYGRNFMFDSSVYVNTEIILSLDALPIISSRTIDIIAAIQGKFKKCLILDLDNTIWGGVVGDDGWENIQVGHGLGIGKAFTEFQEWVKKLKNRGIIIAVCSKNNEGKAKEPFERNPEMVLKLDDIAVFVANWENKADNIRTIQRTLNIGFDSMVFLDDNPFERNMVREHVPGVTVPELPEDPGDYLEYLYTLNLFETASFSEDDKDRTKQYQIEAKRVSLQQSFTNEAEFLKSLDMVSEVKGFDKFNTPRVAQLSQRSNQFNLRTVRYTEAEIAAIESDLHYATFSFTLADRFGDNGLICVIILEKQDTETLFINTWFMSCRVLKRGMENFTLNTLVDYARSNGFKRFIGEYLPSAKNQMVEEHYPHLGFSKMEGGDNAARYVLDVETYEEKECYITKKEGHHHHHH,soluble
2,GPGSMSASSAPDRVYVGKRLHFTNGSRQLVRCGTRNIAVVCNRNELYAIDNACYHHGGPLLLGDIEEMGGHPCIVCPWHSYKIALDTGEGLYLGVELSPAGGTPKQVVRSKGCKQRVHKVEVDEADDVYVLVDLSGPTLESDTYASMELANRERPMSLPVDGGGRGLRVPGIHSHAGVELRSGQVFQHMGSLAEAGGNTGTRGANSLDHAQKTRPHEITSRGSSCSSPTTRLMVSCVAITDVCPQVRQFDFVHHAGPLLRHAELGEYVELELPIKERRTANGGGGQAVDLLSSSSAPAATAGEPMRRRWTICDMNHNSTLFSIIVKAAGTDTQASGSAWLHEHSLSVPLPITRVGGTFTFARHRDTIRRVGGRVLWLTAGVGMTPAYAFLNASLGNSLYVASAEPLHVVHLHSNRTLETVPKLEQFGRWQREFPRSALDTAEKTSGGSGARKPGKTYVMELFIALSTDAGQGQRTSPGSSPPDSCPVATITHRSRLQPANVSAAVQKYFGADMQLAYVCGPQKFVKDCTEALVSTGVPESHILTDDP,not soluble
3,MSLGILEQLENPKFKATKSEKTLIEYIKSDLDNIIYKSISIIAKESGVGEATITRFTKKLGFNGFQDFKVTLAKEISNKKNTSIINLHVHRDESVTETANKMLKSSINILEQTVKQIDLDLMCKCRDLIMNAKRVYFIGIGYSGIAATDINYKFMRIGFTTVPVTDSHTMVIMSSITNDDDVIVAISNSGTTKEVIKTVKQAKENGTKIITLTEDSDNPLRKLSDYELTYTSAETIFETGSISSKIPQIFLLDLLYTEVIKEMFSEAVEKKIKTTSAILNEGHHHHHH,soluble
4,MNIEEFTSGLAEKGISLSPRQLEQFELYYDMLVEWNEKINLTSITEKKEVYLKHFYDSITAAFYVDFNQVNTICDVGAGAGFPSLPIKICFPHLHVTIVDSLNKRITFLEKLSEALQLENTTFCHDRAETFGQRKDVRESYDIVTARAVARLSVLSELCLPLVKKNGLFVALKAASAEEELNAGKKAITTLGGELENIHSFKLPIEESDRNIMVIRKIKNTPKKYPRKPGTPNKSPIEG,soluble
5,MVELLAPARDLSGLITAFNNGADSVYCGLKEMSMRATAKNFERNELIEGINFAHDADKRVYLCTNTVVYEDDILNLNEILEFAKSAEVDAIIVNDIGAMVTAKELGLEVHVSVQNNITNSKTAEFFSKFAKRVVLSRELTLNQIKRIKENLKVNKVDLELEGFIHGALCTAMSGRCYLSSYLFNRNANCGDCLQPCRRSWKLVNEHADGTHELISEGKYLLSPKDLCMIEHIPEMIDVFDCFKIEGRAKNVDYVMRATKTYREAIDSVVDGTYEEKLPIFKKELDKIYNREYDTGFYFRDLTCNHDLQYEFEGNVSPYKKIEVGKVVNYFKKVDVAEITLIDDLKVGDSVLIIGPTTGCIEEKIESMQVEGENITTAKKGQNVGIKLENLVRENDKVYILKED,not soluble
6,MAGDPMMSITIEQIRGALAGVADPQTGLELNVCVKDRDIHLAADPAALTIELGYPAGGVADSVRALAGAALAAAGLGAVRVAVTWNIIAHAVQPGLKPLPQVRNIIAVASGKGGVGKSTTAVNLALALAAEGARAGLLDADIYGPSVPAMLGLAGRPESRDNKTMEPLVGHGLQANSIGLLIDADAPAIWRGPMVTQALEQLLRQTNWRDLDYLVVDMPPGTGDIALTLAQKVPVAGAVIVTTPQDIALLDARKGLRMFQKVHVPILGVVENMAVHICPQCGHAEHIFGAGGGRRVAEQYEVPWLGSLPLQRAIREQTDAGNPTVAAEPESEVAGIYRDIARRVAARIAGLPRDMAGKLPAVVVRPALEHHHHHH,not soluble
7,MALFGKKSSDSSKSVAVPKAFTIQIDPSKFNLATKPSGPVHEQLETLKQKLTKLSSNVENNLMLVIRASTKKDKALASSAFEFDERYIQKGKFEVEYLTLAYLNFQQLDEADRKTVAHARMILKELERIAQFCLNIADKTEYIQLANIQVLHKDEYDLKLMGDDTAEMIKKAVEAFVSGNSKHATETLDMMKKIDDLYQKAVAKLKAEVNDSNIINSTGILSVVEHVHTCAEISCAIARHFC,soluble
8,MARLARFWDSLENENLFDIVPQPPKSTVTRFHQQWLSSLANARDDELQTILYAKPLLPTPESIVQLPDEEYYGAKKISVGYR,not soluble
9,MGSDKIHHHHHHMARSWLDYKTQAWVQWCPGCGDFGILNSIYRAVSELGIDPENLAVVGGIGCSGRTTYYVKGSNFHALHGRAIPVATGVKLANPHLNVIVAGGDGDLMGIGGGHFVALGRRNLNITVLLFDNAVYGLTKGQAAPTLPAWVKTKALSMPNIHDNINPVLLAFAAGYTFIARGYAYHTQQLKELIKTAVRHRGAALVDILQPCPTYNNIMTNKWYEERIYYVDQEEGYDPIIRTPEEFQKKAPAIAAKLMEFGDRIPLGILYWNQTRESFEERLEKIMPGYMSAPPATRRIELEGKPFLHPFDIFKDRLVTP,not soluble
10,MTWADEVLAGHPFVVAHRGASAARPEHTLAAYDLALKEGADGVECDVRLTRDGHLVCVHDRRLDRTSTGAGLVSTMTLAQLRELEYGAWHDSWRPDGSHGDTSLLTLDALVSLVLDWHRPVKIFVETKHPVRYGSLVENKLLALLHRFGIAAPASADRSRAVVMSFSAAAVWRIRRAAPLLPTVLLGKTPRYLTSSAATAVGATAVGPSLPALKEYPQLVDRSAAQGRAVYCWNVDEYEDIDFCREVGVAWIGTHHPGRTKAWLEDGRANGTTR,not soluble
11,VSDFKYGALLNITTLSNKVLSLGYEKPFIDSGQARTRLNGPLAEFFLYKTDGIFKTQEQIDNYVTPDGEPIMISGKRPQLGDVKYIDTDNNGQITADDRQFCGSPWAKMQMSLVLNAEWKDFDFSMMWNGQFGNKIYNVSKWQGRLFSDNSNYLRFKKGEEPYQVNQNSDTPRIIYGDQRNSWDADRFLENGSYFRLKNISIGYNLKKEWLKNLGIDKLRLYATGSNLLTFTGYSGLDPDFINTNIWNSGTDSFSYPNTRSVMFGLDLTF,not soluble
12,MFCLETTFLIDLLRGRDEALKFYAKIRDSKLYTTSISAWELLRGPKLIGKDKEFEVAVELLESLDVLPFSFNSAKIAVEIEKDLREKGMEVNLIDVLIASVAMEHSLKLVTRDEHFSRIKGLEVERYRPE,soluble
13,MLTTLAISNYRTLREIVLPLGRLNVVTGANGSGKSNLYKALRLLAQTAQGGVVNALALEGGLDSCFWAGPENLTKGMLAGDTPIEATVRQAPKRLKLGFAGEDFSYLIELGLPKPDSTTLFGLDPQIKREAIWNGAKYRPASVLVERRGPMVKSRSQDGQGWITLSAHLQSSDSIFTELADPERSPEVLKLRDSIRAWRFYDHFRTDTDAPARRPQLGTATPVLHHDGRDLPSAIQTIFEIGDKSAFDHAVSDAFPGAKVRITPQAGGILQLEFQQQGLLRPLYASELSDGTLRYLLLIAALLTPRPPELMVLNEPETSLHPDLLPALARLIAKASEVCQLWVVSHANRLINALNQFEECNTLALDKTLGQTQILGQDLLNTPSWLWQNRLEHHHHHH,soluble
